The source of these data is US10272135B2, “Apolipoprotein O and fragments thereof for inducing apoptosis in a cancerous cell” (INSERM (INSTITUT NATIONAL DE LA SANTÉ ET DE LA RECHERCHE …, priority 2014, dated 2019).

Holding throughout (assay type): cell-based
One assay has as its system H9c2 cardiac myoblasts. Kind of assay: Lipid profiling (FAME, diglycerides, triglycerides, BODIPY-palmitate) in cardiac myoblasts. The source says: After ethical committee approval, all patients in this study gave written consent for sample collection and molecular analysis prior to inclusion. Patients were carefully selected by physicians from the Department of Cardiology, Toulouse University Hospital, prior to coronary by-pass surgery. Bioinformatics. Microarray expression data from human heart samples were downloaded from the GEO repository (GSE1145). This series consisted of 107 myocardial samples collected from patients undergoing cardiac transplantation whose failure arises from different etiologies (e.g. idiopathic dilated cardiomyopathy, ischemic cardiomyopathy, valvular cardiomyopathy, and hypertrophic cardiomyopathy) and from “normal” organ donors whose hearts cannot be used for transplants. Arrays were intensity normalized and hierarchical clustering (average group linkage, Pearson correlation, threshold r=0.8) was applied to identify groups of co-expressed genes. ApoO expression levels were plotted for the 107 human hearts tested and used to define relevant molecular pathways using both Toppgene and Ingenuity Pathway Analysis (Ingenuity systems, Redwood City, Calif., USA). ApoO subcellular localization was predicted using Mitopred, mitoprot and YLoc. Animals: All animal Studies followed the INSERM Institute Animal Facility guidelines and were approved by the animal care committees of the INSERM I2MC UMR 1048. All animal procedures were performed according to the guidelines of the French Ministry of Agriculture. Animals were housed at the Toulouse I2MC animal facility in a room lit 12 h per day (6 AM-6 PM) at an ambient temperature of 22+/−1° C. […] All ApoO sequences within the expression vectors were verified by DNA double strand sequencing using ABI PRISM®BigDye™ Terminator version 3.1 Ready reaction cycle sequencing kit (Life Technologies SAS, Villebon sur Yvette) and loaded on an ABI 3130XL DNA sequencing instrument (Life Technologies SAS, Villebon sur Yvette). […]

The subject of the next assay is MPTP. Kind of assay: Mitochondrial calcein-cobalt assay of MPTP opening. The conditions noted are these: cultured cardiac myoblasts.
The subject of the next assay is glioblastoma cells. Put plainly: Basal oxygen consumption in glioblastoma cells. The conditions noted are these: cells which express ApoO vs cells treated with shApoO (FIG. 14). The source says: Further, the inventors decided to investigate the effect of transforming gliobastoma cells so that they express ApoO. For this purpose, glioblastoma cells were transformed with an adeno-associated virus 9 comprising a polynucleotide encoding ApoO.
The inventors compared the oxygen consumption after treating glioblastoma cells with a short hairpin RNA (shApoO) silencing the expression of ApoO.

B1: ApoO: 198-amino acid apolipoprotein, SEQ ID NO: 1; tested by overexpression from expression vectors or transgene (protein, listed as Homo sapiens)
chain: MFKVIQRSVGPASLSLLTFKVYAAPKKDSPPKNSVKVDELSLYSVPEGQSKYVEEARSQLEESISQLRHYCEPYTTWCQETYSQTKPKMQSLVQWGLDSYDYLQNAPPGFFPRLGVIGFAGLIGLLLARGSKIKKLVYPPGFMGLAASLYYPQQAIVFAQVSGERLYDWGLRGYIVIEDLWKENFQKPGNVKNSPGTK
Take B1: the “increase of total intracellular fatty acids” value in the assay with H9c2 cardiac myoblasts (ApoO expressing cells vs control (FIG. 6E)) worked out at 120%. Further, in the assay with H9c2 cardiac myoblasts (ApoO expressing cells, 2 min incubation (FIG. 6D)), the “accumulation of green fluorescent BODIPY-palmitate” value is reported as “rapid accumulation”. Further, in the assay with MPTP, the “kinetics of MPTP opening” value was “alters the kinetics of MPTP opening”. In addition, the oxygen consumption entry in the assay on glioblastoma cells is recorded as “more important”.
